Measurements: US20160264649A1

Tests used:
Experiment in all cases: cell-based or functional assay
[1] = target: HIV-1 Env of isolate 92TH021 (subtype AE) (HIV-1)
[2] = target: HIV-1 Env of isolate 92UG031 (subtype A) (HIV-1)
[3] = target: HIV-1 Env of isolate 92UG037 (subtype A) (HIV-1)
[4] = target: HIV-1 Env of isolate 92UG114 (subtype D) (HIV-1)
[5] = target: HIV-1 Env of isolate 92WR009 (subtype A) (HIV-1)
[6] = target: HIV-1 Env of isolate 92WR020 (subtype A) (HIV-1)
[7] = target: HIV-1 Env of isolate 92WR021 (subtype A) (HIV-1)
[8] = target: HIV-1 Env of isolate 92WR024 (subtype A) (HIV-1)
[9] = target: HIV-1 Env of isolate 92WR026 (subtype A) (HIV-1)
[10] = target: HIV-1 Env of isolate 93UG077 (subtype A) (HIV-1)
[11] = target: HIV-1 Env of isolate 93WR029 (subtype A) (HIV-1)
[12] = target: HIV-1 Env of isolate 94 KE 105 (subtype AC) (HIV-1)
[13] = target: HIV-1 Env of isolate 94UG103 (subtype A) (HIV-1)
[14] = target: HIV-1 Env of isolate CMU02 (subtype AE) (HIV-1)
[15] = target: HIV-1 Env of isolate MGRM-AE-001 (subtype AE) (HIV-1)
[16] = target: HIV-1 Env of isolate MGRM-AE-002 (subtype AE) (HIV-1)
[17] = target: HIV-1 Env of isolate MGRM-AE-003 (subtype AE) (HIV-1)
[18] = target: HIV-1 Env of isolate MGRM-AE-004 (subtype AE) (HIV-1)
[19] = target: HIV-1 Env of isolate MGRM-AE-005 (subtype AE) (HIV-1)
[20] = target: HIV-1 Env of isolate MGRM-AE-006 (subtype AE) (HIV-1)
[21] = target: HIV-1 Env of isolate MGRM-AE-007 (subtype AE) (HIV-1)
[22] = target: HIV-1 Env of isolate MGRM-AE-008 (subtype AE) (HIV-1)
[23] = target: HIV-1 Env of isolate MGRM-D-001 (subtype D) (HIV-1)
[24] = target: HIV-1 Env of isolate MGRM-D-002 (subtype D) (HIV-1)
[25] = target: HIV-1 Env of isolate MGRM-D-003 (subtype D) (HIV-1)
[26] = target: HIV-1 Env of isolate MGRM-D-004 (subtype D) (HIV-1)
[27] = target: HIV-1 Env of isolate MGRM-D-005 (subtype D) (HIV-1)
[28] = target: HIV-1 Env of isolate MGRM-D-008 (subtype D) (HIV-1)
[29] = target: HIV-1 Env of isolate MGRM-D-011 (subtype D) (HIV-1)
[30] = target: HIV-1 Env of isolate MGRM-D-012 (subtype D) (HIV-1)
[31] = target: HIV-1 Env of isolate MGRM-D-013 (subtype D) (HIV-1)
[32] = target: HIV-1 Env of isolate MGRM-D-014 (subtype D) (HIV-1)
[33] = target: HIV-1 Env of isolate MGRM-D-016 (subtype D) (HIV-1)
[34] = target: HIV-1 Env of isolate MGRM-D-018 (subtype D) (HIV-1)
[35] = target: HIV-1 Env of isolate MGRM-D-019 (subtype D) (HIV-1)
[36] = target: HIV-1 Env of isolate MGRM-D-020 (subtype D) (HIV-1)
[37] = target: HIV-1 Env of isolate MGRM-D-021 (subtype D) (HIV-1)
[38] = target: HIV-1 Env of isolate MGRM-D-022 (subtype D) (HIV-1)
[39] = target: HIV-1 Env of isolate MGRM-D-024 (subtype D) (HIV-1)
[40] = target: HIV-1 Env of isolate MGRM-D-026 (subtype D) (HIV-1)
[41] = target: HIV-1 Env of isolate MGRM-D-028 (subtype D) (HIV-1)
[42] = target: HIV-1 Env of isolate MGRM-D-029 (subtype D) (HIV-1)
[43] = target: HIV-1 Env of isolate MGRM-F1-004 (subtype F) (HIV-1)
[44] = target: HIV-1 Env of isolate MGRM-F1-006 (subtype F) (HIV-1)
[45] = target: HIV-1 Env of isolate MGRM-F1-008 (subtype F) (HIV-1)
[46] = target: HIV-1 Env of isolate MGRM-F1-010 (subtype F) (HIV-1)
[47] = target: HIV-1 Env of isolate MGRM-F1-012 (subtype F) (HIV-1)
[48] = target: HIV-1 Env of isolate MGRM-F1-013 (subtype F) (HIV-1)
[49] = target: HIV-1 Env of isolate MGRM-F1-014 (subtype F) (HIV-1)
[50] = target: HIV-1 Env of isolate MGRM-F1-015 (subtype F) (HIV-1)
[51] = target: HIV-1 Env of isolate MGRM-F1-016 (subtype F) (HIV-1)
[52] = target: HIV-1 Env of isolate MGRM-F1-017 (subtype F) (HIV-1)
[53] = target: HIV-1 Env of isolate MGRM-F1-018 (subtype F) (HIV-1)
[54] = target: HIV-1 Env of isolate MGRM-F1-020 (subtype F) (HIV-1)
[55] = target: HIV-1 Env of isolate MGRM-F1-021 (subtype F) (HIV-1)
[56] = target: HIV-1 Env of isolate MGRM-F1-022 (subtype F) (HIV-1)
[57] = target: HIV-1 Env of isolate MGRM-F1-023 (subtype F) (HIV-1)
[58] = target: HIV-1 Env of isolate VLGCA1 (subtype A) (HIV-1)

Chain of PGT-144 (4970_K22) (antibody) (VH): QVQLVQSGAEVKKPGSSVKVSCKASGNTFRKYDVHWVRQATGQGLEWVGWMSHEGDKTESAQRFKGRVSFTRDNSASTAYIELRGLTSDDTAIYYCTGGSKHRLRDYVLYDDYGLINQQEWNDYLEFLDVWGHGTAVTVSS
Chain of PGT-144 (4970_K22) (antibody) (VL): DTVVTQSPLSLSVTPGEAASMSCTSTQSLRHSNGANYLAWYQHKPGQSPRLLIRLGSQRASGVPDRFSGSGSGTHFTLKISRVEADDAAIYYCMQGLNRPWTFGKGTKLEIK

PGT-144 (4970_K22) (antibody) gave an IC50 (pseudovirus neutralization) [1] of 0.052 µg/mL, an IC50 (pseudovirus neutralization) [2] of 2.17 µg/mL and an IC50 (pseudovirus neutralization) [3] of 8.24 µg/mL. For the same substance, the IC50 (pseudovirus neutralization) [4] was > 50 µg/mL, the IC50 (pseudovirus neutralization) [5] was 0.893 µg/mL and the IC50 (pseudovirus neutralization) [6] was > 50 µg/mL. The IC50 (pseudovirus neutralization) [7] was > 50 µg/mL, the IC50 (pseudovirus neutralization) [8] was 16.3 µg/mL and the IC50 (pseudovirus neutralization) [9] was 32.7 µg/mL. For the same substance, the IC50 (pseudovirus neutralization) [10] was > 50 µg/mL, the IC50 (pseudovirus neutralization) [11] was 4.39 µg/mL and the IC50 (pseudovirus neutralization) [12] was 0.29 µg/mL. The IC50 (pseudovirus neutralization) [13] was > 50 µg/mL, the IC50 (pseudovirus neutralization) [14] was > 50 µg/mL and the IC50 (pseudovirus neutralization) [15] was > 50 µg/mL. For the same substance, the IC50 (pseudovirus neutralization) [16] was > 50 µg/mL, the IC50 (pseudovirus neutralization) [17] was > 50 µg/mL and the IC50 (pseudovirus neutralization) [18] was 0.104 µg/mL. The IC50 (pseudovirus neutralization) [19] was > 50 µg/mL, the IC50 (pseudovirus neutralization) [20] was > 50 µg/mL and the IC50 (pseudovirus neutralization) [21] was > 50 µg/mL. The IC50 (pseudovirus neutralization) [22] was 3.55 µg/mL, the IC50 (pseudovirus neutralization) [23] was > 50 µg/mL and the IC50 (pseudovirus neutralization) [24] was > 50 µg/mL. The IC50 (pseudovirus neutralization) [25] was > 50 µg/mL, the IC50 (pseudovirus neutralization) [26] was > 50 µg/mL and the IC50 (pseudovirus neutralization) [27] was 14.8 µg/mL. The IC50 (pseudovirus neutralization) [28] was 9.85 µg/mL, the IC50 (pseudovirus neutralization) [29] was > 50 µg/mL and the IC50 (pseudovirus neutralization) [30] was > 50 µg/mL. The IC50 (pseudovirus neutralization) [31] was > 50 µg/mL, the IC50 (pseudovirus neutralization) [32] was 0.113 µg/mL and the IC50 (pseudovirus neutralization) [33] was > 50 µg/mL. For the same substance, the IC50 (pseudovirus neutralization) [34] was > 50 µg/mL, the IC50 (pseudovirus neutralization) [35] was > 50 µg/mL and the IC50 (pseudovirus neutralization) [36] was > 50 µg/mL. The IC50 (pseudovirus neutralization) [37] was > 50 µg/mL, the IC50 (pseudovirus neutralization) [38] was > 50 µg/mL and the IC50 (pseudovirus neutralization) [39] was > 50 µg/mL. For the same substance, the IC50 (pseudovirus neutralization) [40] was > 50 µg/mL, the IC50 (pseudovirus neutralization) [41] was > 50 µg/mL and the IC50 (pseudovirus neutralization) [42] was 0.459 µg/mL. The IC50 (pseudovirus neutralization) [43] was 0.105 µg/mL, the IC50 (pseudovirus neutralization) [44] was 20.6 µg/mL and the IC50 (pseudovirus neutralization) [45] was 0.507 µg/mL. For the same substance, the IC50 (pseudovirus neutralization) [46] was > 50 µg/mL, the IC50 (pseudovirus neutralization) [47] was > 50 µg/mL and the IC50 (pseudovirus neutralization) [48] was 0.509 µg/mL. The IC50 (pseudovirus neutralization) [49] was 0.014 µg/mL, the IC50 (pseudovirus neutralization) [50] was > 50 µg/mL and the IC50 (pseudovirus neutralization) [51] was > 50 µg/mL. The IC50 (pseudovirus neutralization) [52] was > 50 µg/mL, the IC50 (pseudovirus neutralization) [53] was > 50 µg/mL and the IC50 (pseudovirus neutralization) [54] was 8.93 µg/mL. The IC50 (pseudovirus neutralization) [55] was > 50 µg/mL, the IC50 (pseudovirus neutralization) [56] was 0.382 µg/mL and the IC50 (pseudovirus neutralization) [57] was 1.16 µg/mL. The IC50 (pseudovirus neutralization) [58] was > 50 µg/mL.
